Results on two substances are retold here after paper PMC5596348.

Experiment [1] deals with streptolysin O (Streptococcus pyogenes (group A Streptococcus), strain 854) (UniProt P0C0I3). The experiment can be described thus: BLI; […] (Octet RED384), […]; 20 mM Tris, 300 mM NaCl, 0.01% Tween 20, 1 mM DTT, pH 7.4; 30°C; […].
Experiment [2] has the same target. Put plainly: […], room temperature; […], pH 7.4; […].
For experiment [3] the target is unchanged. Put plainly: […]; PBS, 1 mM DTT, pH 7.4; room temperature.

For the substance “190NADase, C-terminal glycohydrolase (catalytic) domain of NADase (domain or fragment)”, in experiment [1], the Kd was 20.7 µM.
Take “NAD+-glycohydrolase, full-length (enzyme)”: the stoichiometry N in experiment [2] and in experiment [3] was 1 throughout. The Kd in experiment [1] is 2.58 µM.
